We go through 1 variant from IntAct's records for PubMed 18560563.

B1: Bifunctional UDP-N-acetylglucosamine 2-epimerase/N-acetylmannosamine kinase (Homo sapiens), Q9Y223 (parent)
chain: MEKNGNNRKLRVCVATCNRADYSKLAPIMFGIKTEPEFFELDVVVLGSHLIDDYGNTYRMIEQDDFDINTRLHTIVRGEDEAAMVESVGLALVKLPDVLNRLKPDIMIVHGDRFDALALATSAALMNIRILHIEGGEVSGTIDDSIRHAITKLAHYHVCCTRSAEQHLISMCEDHDRILLAGCPSYDKLLSAKNKDYMSIIRMWLGDDVKSKDYIVALQHPVTTDIKHSIKMFELTLDALISFNKRTLVLFPNIDAGSKEMVRVMRKKGIEHHPNFRAVKHVPFDQFIQLVAHAGCMIGNSSCGVREVGAFGTPVINLGTRQIGRETGENVLHVRDADTQDKILQALHLQFGKQYPCSKIYGDGNAVPRILKFLKSIDLQEPLQKKFCFPPVKENISQDIDHILETLSALAVDLGGTNLRVAIVSMKGEIVKKYTQFNPKTYEERINLILQMCVEAAAEAVKLNCRILGVGISTGGRVNPREGIVLHSTKLIQEWNSVDLRTPLSDTLHLPVWVDNDGNCAALAERKFGQGKGLENFVTLITGTGIGGGIIHQHELIHGSSFCAAELGHLVVSLDGPDCSCGSHGCIEAYASGMALQREAKKLHDEDLLLVEGMSVPKDEAVGALHLIQAAKLGNAKAQSILRTAGTALGLGVVNILHTMNPSLVILSGVLASHYIHIVKDVIRQQALSSVQDVDVVVSDLVDPALLGAASMVLDYTTRRIY

The variants in the assay derive from B1. Particulars: with actn1_human ACTN1, P12814.
Sequence of actn1_human ACTN1, P12814 (P12814 whole entry): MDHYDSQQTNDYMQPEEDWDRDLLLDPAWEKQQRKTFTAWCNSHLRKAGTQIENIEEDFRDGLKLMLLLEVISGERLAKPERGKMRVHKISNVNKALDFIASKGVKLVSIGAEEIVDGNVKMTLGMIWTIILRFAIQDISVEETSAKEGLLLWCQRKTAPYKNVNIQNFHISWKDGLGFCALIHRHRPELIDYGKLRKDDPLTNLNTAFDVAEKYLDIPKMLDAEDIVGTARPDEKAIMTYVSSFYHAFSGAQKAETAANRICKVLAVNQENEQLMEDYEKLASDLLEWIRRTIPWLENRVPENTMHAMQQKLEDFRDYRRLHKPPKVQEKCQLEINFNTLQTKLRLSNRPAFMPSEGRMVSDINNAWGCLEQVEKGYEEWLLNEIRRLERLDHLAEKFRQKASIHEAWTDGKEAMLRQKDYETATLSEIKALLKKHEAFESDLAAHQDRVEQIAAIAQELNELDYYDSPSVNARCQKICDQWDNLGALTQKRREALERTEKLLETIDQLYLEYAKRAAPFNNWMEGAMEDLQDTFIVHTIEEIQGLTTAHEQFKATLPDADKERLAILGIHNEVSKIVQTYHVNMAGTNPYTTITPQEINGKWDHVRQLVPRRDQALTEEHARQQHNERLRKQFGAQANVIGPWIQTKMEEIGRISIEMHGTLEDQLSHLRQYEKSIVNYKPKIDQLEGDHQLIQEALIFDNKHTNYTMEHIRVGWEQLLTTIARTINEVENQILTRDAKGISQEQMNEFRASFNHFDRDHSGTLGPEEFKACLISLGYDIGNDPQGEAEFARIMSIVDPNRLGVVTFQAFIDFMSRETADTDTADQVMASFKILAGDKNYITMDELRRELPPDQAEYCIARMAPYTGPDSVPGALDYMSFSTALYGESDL
Take M712T: the “effect of a mutation on the interaction” value is “with no effect”.
